The record followed here is article PMC9249733 (Nature Communications, 2022).

In assay [1] the target is T1, biotinylated hepatocyte growth factor receptor (HGFR) (Homo sapiens (assumed; species not …, UniProt P08581, biotin).
T1 construct: hepatocyte growth factor receptor (c-Met, tyrosine-protein kinase Met); bought biotinylated protein; The library sorting and the scFab measurements on yeast used another construct (extracellular domain as Fc fusion, Acro Biosciences MET-H5256); also called c-Met; tyrosine-protein kinase Met; source: bought: Sino Biological 10692-H27H-B
T1 sequence (P08581 25-932): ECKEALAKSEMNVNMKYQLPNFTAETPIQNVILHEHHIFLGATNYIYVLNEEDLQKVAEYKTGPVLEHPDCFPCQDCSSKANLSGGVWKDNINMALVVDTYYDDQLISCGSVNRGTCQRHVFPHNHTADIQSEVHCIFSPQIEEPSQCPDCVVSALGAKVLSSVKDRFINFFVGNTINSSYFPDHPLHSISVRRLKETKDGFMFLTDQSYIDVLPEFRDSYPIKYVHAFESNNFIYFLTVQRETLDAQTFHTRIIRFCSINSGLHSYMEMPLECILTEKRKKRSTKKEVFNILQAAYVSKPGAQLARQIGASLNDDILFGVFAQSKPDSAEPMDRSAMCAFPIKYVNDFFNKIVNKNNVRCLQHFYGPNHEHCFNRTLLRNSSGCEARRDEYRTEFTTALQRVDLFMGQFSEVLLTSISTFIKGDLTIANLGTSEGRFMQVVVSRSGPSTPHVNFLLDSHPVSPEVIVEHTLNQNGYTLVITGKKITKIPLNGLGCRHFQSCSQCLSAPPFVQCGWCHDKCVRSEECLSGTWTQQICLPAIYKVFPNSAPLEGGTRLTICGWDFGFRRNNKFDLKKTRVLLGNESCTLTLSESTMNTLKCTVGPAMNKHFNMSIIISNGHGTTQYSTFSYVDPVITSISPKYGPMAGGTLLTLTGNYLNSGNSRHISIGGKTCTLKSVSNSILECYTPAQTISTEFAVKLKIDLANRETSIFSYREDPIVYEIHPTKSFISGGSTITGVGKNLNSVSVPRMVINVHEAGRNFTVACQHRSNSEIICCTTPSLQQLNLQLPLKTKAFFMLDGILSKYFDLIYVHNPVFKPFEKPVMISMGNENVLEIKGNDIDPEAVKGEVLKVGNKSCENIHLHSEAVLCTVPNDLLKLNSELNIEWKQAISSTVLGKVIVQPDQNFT
In words: flow cytometry of antibody-coated beads; IgG (0.076 ug/mL) captured on Protein A Dynabeads overnight; biotinylated HGFR in PBSB at a range of concentrations at 10x molar excess, 3 h, room temperature; detected with streptavidin-AF647; median fluorescence. The settings on record: both partners purified. For orientation: In flow cytometry, cells or beads pass a laser one at a time.

Assay [2] deals with T1, biotinylated hepatocyte growth factor …. The assay is described as follows: flow cytometry of antibody-coated beads; single point; IgG (15 ug/mL) captured on Protein A Dynabeads overnight at 4 C; 1 nM biotinylated HGFR or 0.1 mg/mL biotinylated ovalbumin in PBSB, 3 h, room temperature; streptavidin-AF647; scores normalised between emibetuzumab (high) and elotuzumab (low). As to conditions: both partners purified.

Positions count from the first letter of the chain named.

B1: emibetuzumab (wild type), soluble IgG1 (antibody, V domains shown)
VH: QVQLVQSGAEVKKPGASVKVSCKASGYTFTDYYMHWVRQAPGQGLEWMGRVNPNRRGTTYNQKFEGRVTMTTDTSTSTAYMELRSLRSDDTAVYYCARANWLDYWGQGTTVTVSS
VL: DIQMTQSPSSLSASVGDRVTITCSVSSSVSSIYLHWYQQKPGKAPKLLIYSTSNLASGVPSRFSGSGSGTDFTLTISSLQPEDFATYYCQVYSGYPLTFGGGTKVEIK
Molecule B1 gave an EC50 in assay [1] of 4.4 nM. This lies in the single-digit nanomolar range.

B2: EM2, emibetuzumab variant, soluble IgG1 (antibody, V domains shown)
VH: B1 VH with R55G, A99S, W101L, D103E, Y104D
VL: B1 VL
In assay [1], B2 yielded an EC50 of 2.4 nM. Moreover, the “antigen binding at 1 nM HGFR relative to wild type” value in assay [2] was 1.28 x of wild type.

B3: EM1, emibetuzumab variant, soluble IgG1 (antibody, V domains shown)
VH: B1 VH with R55G, A99S, W101L, Y104D
VL: B1 VL
In the case of B3, a half-maximal effect in assay [1] (EC50) was put at 2.6 nM. In assay [2], the “antigen binding at 1 nM HGFR relative to wild type” value is 1.2 x of wild type.

For orientation: EC50 means the concentration at which the effect is half-maximal. Low values mean greater potency, high ones weaker potency.
